This note sets out measurements from the nanobody polyreactivity screen of Harvey et al. (2022).

The series is described as follows: yeast display, Sf9 membrane polyspecificity reagent, FACS + sequencing; frameworks hold sequencing errors. In a few lines:
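After 36–48 hours of galactose induction, yeast (Saccharomyces cerevisiae BJ5465) displaying a synthetic nanobody library were stained at 4 °C for 1 hour with 10% biotinylated, detergent-solubilized Sf9 membrane reagent. Streptavidin microbeads enriched the stained cells before FACS sorting into low and high (top ~1%) gates on anti-HA and streptavidin fluorescence. Each clone's polyreactivity label reflects its gate of origin.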
Consider “QVQLVESGGGLVQAGGSLRLSCAASGNIFGYYAMGWYRQAPGKERELVAAITTTGGSTYYADSVKGRFTISRDNAKNTVYLQMNSLKPEDTAVYYCAAETGYWYYYWGQGTLVTVSS”, for which the “polyreactivity (PSR sort gate)” value is listed as “high polyreactivity”. Consider “QVQLVESGGGLVQAGGSLRLSCAASGSIFSVYAMGWYRQAPGKERELVATITWSGGRTYYADSVKGRYTISRDNAKNTVYLQMNSLKPEDTAVYYCAATSWWATTGFDYWGQGTQVTVSS”, for which the “polyreactivity (PSR sort gate)” value is listed as “low polyreactivity”. With “QVQLVESGGGLVQAGGSLRLSCAASGRIFYSNTMGWYRQAPGKERELVAAISRSGGRTYYADSVKGRFTISRDNAKNTVSLQLNSLKPEDTAVYYCNTAYCRNPYYKGYYWGQGTQVTVSS”, the “polyreactivity (PSR sort gate)” value was “high polyreactivity”. The entry for “QVQLVESGGGLVQAGGSLRLSCAASGSTFWNNAMGWYRQAPGKERELVAVINSSGGSTYYADSVKGRFTISRDNAKNTVYLQMNSLKPEDTAVYYCNADATDSYPEKDEHDSWGQGTQVTVSS” is “low polyreactivity”; for “QVQLVESGGGLVQAGGSLRLSCAASGSIFDPYAMGWYRQAPGKERELVAAISWSDSSTYYADSVKGRFTISRDNEKNTVYLQMNSLKPEDTAVYYSAAPSRYRYYWGNYWGQGTQVTVSS” it is “high polyreactivity”; for “QVQLVESGGGLVQAGGSLRLSCAASGGTFGSYTMGWYRQAPGKERELVAAISSGGGTDYADSVKGRFTISRDNAKNTVYLQMNSLIPEDTAVYYCYAKSYYAWGSVRYPQTFDYWGQGTQVTVSS” it is “low polyreactivity”. With “QVKLVESGGGLVQAGGSLRLSCAAYGFIISYYAMGWYRQQPGKEREFVAVISRGGNTYYADSVKGRFTISRDNAKNTVYLQMNSLKPVDTAVYYCAASVPPYYPRQRHDGYDYWVQGTQVTVSS” the entry was “low polyreactivity”; with “QVQLVDSGGGLVQAGGSLRLSCASSGRIFTKYSMGLYRQAPGKERELVAGISGSGTITYYADSVKGRFTISRDNAKNTVYLQMNSLKPVDSAVYYCNAGRVTNRTPRYDYWGQGTQVSVSS”, “high polyreactivity”. The entry for “QFQLVESGGGLVQAGGSLRLSCAASGSIFDRNAMGWYRQAPGKERELVAAITSGGSTYYADSVKGRFTISRDNAKNTVYLQMNSLKPEDNAVYYCNADTDPPVPLYYWGQGTQVTVSS” is “low polyreactivity”; for “QVQLVESGGGLVQAGGSLRLSCAASGITFSQYAMGWYTQAPGKERELVASISEGDGTNYADSVKGRFTISRDNAKNTVYLQMNSLKPEDTAVYYCAAPRPYYWSRRYYRAFDYWGQGTQVTVSS” it is “high polyreactivity”. “QVQLVESGGGLVQAGGSLRLSCAATGIIYGYVMGWYRQAPGKERELVAVITRSGGSTYYADSVKGRFTISRDNAMNSVYLQMNSLKPEDTAVYYCAAQGIDILYDYWGQGTQVTVSS”: the “polyreactivity (PSR sort gate)” value is recorded as “low polyreactivity”. The entry for “QVQRVESGGGLVQAGGSLRLSCAASGGTFPQYAMGWDRQSHGKETEFVADITSRGGTTYYADSVKGRFTISRDNAKNTVYLQMNSLKPEDTAVNYCAADNPADWWGLDYWGQGTQVTVSS” is “low polyreactivity”. With “QVQLEESGGGLVQAGGSLRLSCAASGFILSGNTMGWYRPAPGKERELVAGITYTGGSTYYADSVKGRFTISRDNAKNTVYLQMNSLKPEDTAVYYCAVDVAGGEGMDYWGHGTQVTVSS” the entry was “low polyreactivity”. Consider “QVQLEESGGGLVQAGGSLRLSCAASGRILRGYVMGWYRQAPGKERELVATITGRGGSTYYADSVKGRFTISRDNAKNTVYLQMNSLKPEDTAVYYCNKDGYPYFGRSEYWGQGTQVTVSS”, for which the “polyreactivity (PSR sort gate)” value is recorded as “low polyreactivity”. The entry for “QVQLGESGGGLVQAGGSLRLSCAASGSTFVWYAMGWYRQAPGKERELVANISGSGGSTYYADSVKGRFTISRDNAKNTVYLQMNSLKPEDNAVYYCAAQRQWRTQYDDDYWGQGTQVTVSS” is “low polyreactivity”; for “QVQLVESGGGLVQAGGSLRLCCAASGRIFDYNAMGLYRQAPGKERELVAAINSGGSTYADSVKGRFTISRDNAKNTVYLQMNSLKPEDTAVYYCANSLGQTDWEYDSWGQGTQVTVSS” it is “low polyreactivity”; for “QVQLGESGGGLVQAGVSLRLSCAASGSLFYHNAMGWYRHAPGKERELVAAISGRGGSTYYADSVKGRFTISRDNAKNTVYLQMNSLKPEDTAVYYCAADARYQNGGLYYWGQGTQVTVSS” it is “high polyreactivity”.

In the case of “QVQLVESGGALVQAGGSLRLSCAASGSTFFKYGMGWYRQAPGKERELDATISSRGGNTSYADSVKGRFTISRDNAKNTVYLQMNSLKPEDTAVYYCNAGGDEPVYGSGYDYWGQGTQVTVSS”, the “polyreactivity (PSR sort gate)” value is “low polyreactivity”. With “QVQLVESGRGLDQAGGSLRLNCAASGSIFVRYAMGLNRQAPGKERELVAGITNSGGSTYYADSVKGRFTISRDNAMNTVYLQMNSLKPEDTAVYYCAADAGGWWYKYYYWGQGTQVTVSS” the entry was “high polyreactivity”; with “QVQLVESGGGLVQAGGSLRLSCAASGFTFSRYAMGWYRQAPGKERELVAVISSSGSRTYYADSVKGRFTISRDNAKNTVYLQMNSLTPEDTAVYYCAAKSYTVTGYEYWGQGTQVTVSS”, “high polyreactivity”. On to “QVQLVESGGGLVQAGGSLRLSCAASGRTFRANAMGWYRQAPGKERELVAAIRTGTRTYYADSVKGRFTISRDNAKNTVYLQMNSLKPEDTAVYYCNRRHYYPYDNYDAMYYWGQGTQVTVSS”, for which the “polyreactivity (PSR sort gate)” value is “high polyreactivity”.

Turning to “QVQLVESGGGLVQAGGSLRLSCAASGSIFVSYAMVWYRQAPGKERELVAAITRSGGSTYYADSVKGRFTISRDNAKNTVYLQMNSLKPEDTAVYYCAARSYLGAYRRYYWGQGTQVTVSS”, the “polyreactivity (PSR sort gate)” value was “high polyreactivity”. Take “QVQIVESGGGLVQAGVSLRLSCAASGSTFETNTMGWYRKAPGKERELVAAITTGGRTYYADSLKGRFSISRDNAKNNVYLQMNSLKPEDTAVYYCAVAYWNRQSLFRMYYWGQGTQVTVSS”: the “polyreactivity (PSR sort gate)” value is reported as “high polyreactivity”. For the sequence “QVQLVESGGGLVQAGGSLRLSSAASGRIFQLYTMGWYRQAPGKEREMVAAITSGTSTSYADSVKGRFTISRDNAKNSVYLQMNSLKPEDTAVYYCNKGSVSYCSVFVPYESDYWGQGTQVTVSS”, the “polyreactivity (PSR sort gate)” value is on record as “low polyreactivity”. The entry for “QVQLVESGGGLVQAGGSLRLTCAASGSIFSLNVMGRYRQAPGKERELVATIRGRGTSTYYADSVKGRFTISRYNAKINVYLHMNSLKPEDTAVYYWAARGHGAYGYWGQGTQVTVSS” is “low polyreactivity”; for “QVQLVESGGGLVQAGGSLRLSCAASGFTFDQYTMGWYRQAPGKERELVAAISSSGGSTYYADSVKGRFTISRDNAKNTVYLQMNSLKPEDTAVYYCAARFLLTQRVSHDYRGQGTQVTVSS” it is “low polyreactivity”. On to “QVQLVESGGGLVQAGGILRLSCAASGRILTTNAMGWYRQAPGKERELVAAITRSGGRTYYADSVKGRFTISRDNAKNTVYFQMNSLKPEDTAVYYCNAVTTRLSLYDYWGQGTQVTVSS”, for which the “polyreactivity (PSR sort gate)” value was “high polyreactivity”. The entry for “QVQLVESGGGLVQAGGSLRLSCAASGRIFVINTMGWYRQAPGKERELVAAISRGGSTNYADSVKGRFTISRDNAKNTVYLQMNSLKPEDTAVYYCAATGYILFAGGGYDYWGQGTQVTVSS” is “low polyreactivity”; for “QVQLVESGGGLVQAGGSLRLSCAASGSTFRTYAMGWYRQAPGKERELVAAISRSGGSTYYADSVKGRFTISRDNAKNTFYLQMNSLKPEDTAVYYCAARGGRGWTPSDYWGQGTQVTVSS” it is “high polyreactivity”. As to “QVQLVESGGGLVQAGGSLRLSCAASGFIFSYYAMGLYRQAPGKERELVAAIDYSGGSTNYADSVKGRFTISRDIAKYTVYLQMNSLKPEDTAVYYCNAEYTWHRGYDYWGQGTQVTVSS”, the “polyreactivity (PSR sort gate)” value is “low polyreactivity”. For “QVQLEESGGGLVQAGGSLRLICADSGFTFVYYARGWYRQAPGKERELVATISGNGGRTYYADSVKGRFTISRDNAKNTVYLQMNSLKPEDTAVYYCNADDPYLYYDSYDYWGQGTQVTVSS”, the “polyreactivity (PSR sort gate)” value is listed as “low polyreactivity”. Consider “QVQLVESGGGLVQAGGSLRLSCAASGLPYAMGWYRQAPGKERELVAAISSSGGSTYYADSVKGRFTISRDNAKNNVYLQMNSLKPEDTAVYYCNRDIGGTSVLDDYWGQGTQVTVSS”, for which the “polyreactivity (PSR sort gate)” value is recorded as “low polyreactivity”. The entry for “QVQLVESGGGLVQAGGSLRLICAASGRILDIYALGWYRQAPGKERELVASISGSGSSTYYADSVKGRVTISRDNAKNTVYLQMNSLKPEDSAVYYCNAARSQGYEYATYGYWGQGSQVTVSS” is “low polyreactivity”; for “QVQLVESGGGLVQAGGSLRLTCAASGFIFQNYAMGWYIQAPGKERELVSAIDFTDGSKYYADSVKGRYTISRDNAKNSVYLQMNSLKPEDTSVDYCNALDYLYGGIYLEEDYWGQGTQVTVSS” it is “low polyreactivity”; for “QVQLVESGGGLVQAGGSLRLSCAASGIIFYEYVMGWYRQAPGKERELVATISSIGGSTYYADSVKGRFTISRDNAKNTVYLQMNSLKPEDTAVYYCAADPDPVVSRGGNWYGDDYWGQGTQVTVSS” it is “high polyreactivity”. As for “QVQLVESGGGLVQAGGSLRLSCADSGSISDYYAMGWYRQAPGKERELVAAISWDGGSTYYADSVKGRFTISRDNAKNTVYLQMNSLKPEDTAVYYCAAVAWEGSGSEMYSWGQGTQVTVSS”, the “polyreactivity (PSR sort gate)” value was “low polyreactivity”. Turning to “QVQLVESGGGLVQAGGSLRLSCAASGLIFGPYAMGWYRQAPGKERELLAASWRGGSTYYADSVKGRFTISRDNAKNTVFLQMNSLKPEDTAVYYCAADVIYSLYYYWGQGTQVTVSS”, the “polyreactivity (PSR sort gate)” value is listed as “low polyreactivity”. For “QVQLVESGGGLVQAGGSLRLSCAASGYTFLYYAMGWYRQAPGKEREFVAAISRSGGSTYYADSVKGRFTISRDNAKNTVYLQMISLKPEDTAVYYCAARFRYQHQRGDYWGQGTQVTVSS”, the “polyreactivity (PSR sort gate)” value was “high polyreactivity”. On to “QVQLVESGGGLVQAGGSLRLSCAASGSIFKYYTMGGYRQAPGKERELVAAISGSGSRTYYADSVKGRFTISRDNAKNTVYLQMNSLKPEDTAVYYCAAEVKDSFVNAKSYYWGQGTQVTVSS”, for which the “polyreactivity (PSR sort gate)” value is reported as “high polyreactivity”. As to “QFQLVESWGGLVPPGGILRLSCAASRSTFRYYPIGRYRQAPGHERELVAVISSSGSRTNYADSVKGRFTISRDTAKNTVYLQLNSLKPEDSAVYYCGAVSSYRYYADYYWGQGTQVTVSS”, the “polyreactivity (PSR sort gate)” value is listed as “high polyreactivity”.

On to “QVQLVESGGGLVQAGGSLRLSCAASGIIYSINAMGWYRQAPGKERELVAAISRSGGSTNYADSVKGRFTISRDNAKNTVYLQMNSLKPEDSAVYYCATVHRYSVWSHNYWGQGTQVTVSS”, for which the “polyreactivity (PSR sort gate)” value is “high polyreactivity”.
